From the RNAGym collection of RNA variant scans (doi:10.1021/acssynbio.7b00057)

B1: Pistol ribozyme (parent)
chain: GGGUCGUUGUUCCAUAAUCGCGUGGAUAUGGCACGCAAGUUUCUACCGGGCACCGUAAAUGUCCGACUGGAGCCGUUCGGGCGGCUAUAAACAGACCUCAGGCCCGAAGCGUGGCGGCACCUGCCGCCGGUGGUAAAAAAGAUCGGAAGAGCACACGUCU

Variants of: B1
Experiment: aptazyme ON/OFF ratio, guanine; higher = stronger switching; co-transcriptional cleavage with and without guanine

Row | Variant | aptazyme ON/OFF ratio
1 | GGGUCGUUAAUUUAUAAUCGCGUGGAUAUGGCACGCAAGUUUCUACCGGGCACCGUAAAUGUCCGACUGGAGCCGUUCGGGCGGCUAUAAACAGACCUCAGGCCCGAAGCGUGGCGGCACCUGCCGCCGGUGGUAAAAAAGAUCGGAAGAGCACACGUCU [G9A U10A C12U C13U] | 1.4
2 | GGGUCGUAAUGACAUAAUCGCGUGGAUAUGGCACGCAAGUUUCUACCGGGCACCGUAAAUGUCCGACUGGAGCCGUUCGGGCGGCUAUAAACAGACCUCAGGCCCGAAGCGUGGCGGCACCUGCCGCCGGUGGUAAAAAAGAUCGGAAGAGCACACGUCU [U8A G9A U11G C12A] | 1.08
3 | GGGUCGUCUUCGCAUAAUCGCGUGGAUAUGGCACGCAAGUUUCUACCGGGCACCGUAAAUGUCCGACUGGAGCCGUUCGGGCGGCUAUAAACAGACCUCAGGCCCGAAGCGUGGCGGCACCUGCCGCCGGUGGUAAAAAAGAUCGGAAGAGCACACGUCU [U8C G9U U11C C12G] | 1.24
4 | GGGUCGAGCGAUCAUAAUCGCGUGGAUAUGGCACGCAAGUUUCUACCGGGCACCGUAAAUGUCCGACUGGAGCCGUUCGGGCGGCUAUAAACAGACCUCAGGCCCGAAGCGUGGCGGCACCUGCCGCCGGUGGUAAAAAAGAUCGGAAGAGCACACGUCU [U7A U8G G9C U10G U11A C12U] | 1.2
5 | GGGUCGCGAGCCGAUAAUCGCGUGGAUAUGGCACGCAAGUUUCUACCGGGCACCGUAAAUGUCCGACUGGAGCCGUUCGGGCGGCUAUAAACAGACCUCAGGCCCGAAGCGUGGCGGCACCUGCCGCCGGUGGUAAAAAAGAUCGGAAGAGCACACGUCU [U7C U8G G9A U10G U11C C13G] | 1.04
6 | GGGUCGGCGCCGGAUAAUCGCGUGGAUAUGGCACGCAAGUUUCUACCGGGCACCGUAAAUGUCCGACUGGAGCCGUUCGGGCGGCUAUAAACAGACCUCAGGCCCGAAGCGUGGCGGCACCUGCCGCCGGUGGUAAAAAAGAUCGGAAGAGCACACGUCU [U7G U8C U10C U11C C12G C13G] | 1.06
7 | GGGUCGCGCACUUAUAAUCGCGUGGAUAUGGCACGCAAGUUUCUACCGGGCACCGUAAAUGUCCGACUGGAGCCGUUCGGGCGGCUAUAAACAGACCUCAGGCCCGAAGCGUGGCGGCACCUGCCGCCGGUGGUAAAAAAGAUCGGAAGAGCACACGUCU [U7C U8G G9C U10A U11C C12U C13U] | 1.09
8 | GGGUCGAGUAAUGAUAAUCGCGUGGAUAUGGCACGCAAGUUUCUACCGGGCACCGUAAAUGUCCGACUGGAGCCGUUCGGGCGGCUAUAAACAGACCUCAGGCCCGAAGCGUGGCGGCACCUGCCGCCGGUGGUAAAAAAGAUCGGAAGAGCACACGUCU [U7A U8G G9U U10A U11A C12U C13G] | 1.24
9 | GGGUCGGCGUGGCAUAAUCGCGUGGAUAUGGCACGCAAGUUUCUACCGGGCACCGUAAAUGUCCGACUGGAGCCGUUCGGGCGGCUAUAAACAGACCUCAGGCCCGAAGCGUGGCGGCACCUGCCGCCGGUGGUAAAAAAGAUCGGAAGAGCACACGUCU [U7G U8C U11G C12G] | 1.22
10 | GGGUCGAAACGUAAUAAUCGCGUGGAUAUGGCACGCAAGUUUCUACCGGGCACCGUAAAUGUCCGACUGGAGCCGUUCGGGCGGCUAUAAACAGACCUCAGGCCCGAAGCGUGGCGGCACCUGCCGCCGGUGGUAAAAAAGAUCGGAAGAGCACACGUCU [U7A U8A G9A U10C U11G C12U C13A] | 1.14
11 | GGGUCGAUAACUCAUAAUCGCGUGGAUAUGGCACGCAAGUUUCUACCGGGCACCGUAAAUGUCCGACUGGAGCCGUUCGGGCGGCUAUAAACAGACCUCAGGCCCGAAGCGUGGCGGCACCUGCCGCCGGUGGUAAAAAAGAUCGGAAGAGCACACGUCU [U7A G9A U10A U11C C12U] | 1.1
12 | GGGUCGGGGGACGAUAAUCGCGUGGAUAUGGCACGCAAGUUUCUACCGGGCACCGUAAAUGUCCGACUGGAGCCGUUCGGGCGGCUAUAAACAGACCUCAGGCCCGAAGCGUGGCGGCACCUGCCGCCGGUGGUAAAAAAGAUCGGAAGAGCACACGUCU [U7G U8G U10G U11A C13G] | 1.18
13 | GGGUCGUGGAAUGAUAAUCGCGUGGAUAUGGCACGCAAGUUUCUACCGGGCACCGUAAAUGUCCGACUGGAGCCGUUCGGGCGGCUAUAAACAGACCUCAGGCCCGAAGCGUGGCGGCACCUGCCGCCGGUGGUAAAAAAGAUCGGAAGAGCACACGUCU [U8G U10A U11A C12U C13G] | 1.17
14 | GGGUCGUCUUUAGAUAAUCGCGUGGAUAUGGCACGCAAGUUUCUACCGGGCACCGUAAAUGUCCGACUGGAGCCGUUCGGGCGGCUAUAAACAGACCUCAGGCCCGAAGCGUGGCGGCACCUGCCGCCGGUGGUAAAAAAGAUCGGAAGAGCACACGUCU [U8C G9U C12A C13G] | 1.12
15 | GGGUCGUAGACACAUAAUCGCGUGGAUAUGGCACGCAAGUUUCUACCGGGCACCGUAAAUGUCCGACUGGAGCCGUUCGGGCGGCUAUAAACAGACCUCAGGCCCGAAGCGUGGCGGCACCUGCCGCCGGUGGUAAAAAAGAUCGGAAGAGCACACGUCU [U8A U10A U11C C12A] | 1.09
16 | GGGUCGCUUACUCAUAAUCGCGUGGAUAUGGCACGCAAGUUUCUACCGGGCACCGUAAAUGUCCGACUGGAGCCGUUCGGGCGGCUAUAAACAGACCUCAGGCCCGAAGCGUGGCGGCACCUGCCGCCGGUGGUAAAAAAGAUCGGAAGAGCACACGUCU [U7C G9U U10A U11C C12U] | 1.1
17 | GGGUCGGAGAAGGAUAAUCGCGUGGAUAUGGCACGCAAGUUUCUACCGGGCACCGUAAAUGUCCGACUGGAGCCGUUCGGGCGGCUAUAAACAGACCUCAGGCCCGAAGCGUGGCGGCACCUGCCGCCGGUGGUAAAAAAGAUCGGAAGAGCACACGUCU [U7G U8A U10A U11A C12G C13G] | 1.2
18 | GGGUCGAGGUACUAUAAUCGCGUGGAUAUGGCACGCAAGUUUCUACCGGGCACCGUAAAUGUCCGACUGGAGCCGUUCGGGCGGCUAUAAACAGACCUCAGGCCCGAAGCGUGGCGGCACCUGCCGCCGGUGGUAAAAAAGAUCGGAAGAGCACACGUCU [U7A U8G U11A C13U] | 1.11

Row | Variant | aptazyme ON/OFF ratio
19 | GGGUCGGGUCCGGAUAAUCGCGUGGAUAUGGCACGCAAGUUUCUACCGGGCACCGUAAAUGUCCGACUGGAGCCGUUCGGGCGGCUAUAAACAGACCUCAGGCCCGAAGCGUGGCGGCACCUGCCGCCGGUGGUAAAAAAGAUCGGAAGAGCACACGUCU [U7G U8G G9U U10C U11C C12G C13G] | 1.12
20 | GGGUCGAUCGGGUAUAAUCGCGUGGAUAUGGCACGCAAGUUUCUACCGGGCACCGUAAAUGUCCGACUGGAGCCGUUCGGGCGGCUAUAAACAGACCUCAGGCCCGAAGCGUGGCGGCACCUGCCGCCGGUGGUAAAAAAGAUCGGAAGAGCACACGUCU [U7A G9C U10G U11G C12G C13U] | 1.16
21 | GGGUCGUUGCCGUAUAAUCGCGUGGAUAUGGCACGCAAGUUUCUACCGGGCACCGUAAAUGUCCGACUGGAGCCGUUCGGGCGGCUAUAAACAGACCUCAGGCCCGAAGCGUGGCGGCACCUGCCGCCGGUGGUAAAAAAGAUCGGAAGAGCACACGUCU [U10C U11C C12G C13U] | 1.11
22 | GGGUCGCAAGCAUAUAAUCGCGUGGAUAUGGCACGCAAGUUUCUACCGGGCACCGUAAAUGUCCGACUGGAGCCGUUCGGGCGGCUAUAAACAGACCUCAGGCCCGAAGCGUGGCGGCACCUGCCGCCGGUGGUAAAAAAGAUCGGAAGAGCACACGUCU [U7C U8A G9A U10G U11C C12A C13U] | 1.18
23 | GGGUCGGUGAUCCAUAAUCGCGUGGAUAUGGCACGCAAGUUUCUACCGGGCACCGUAAAUGUCCGACUGGAGCCGUUCGGGCGGCUAUAAACAGACCUCAGGCCCGAAGCGUGGCGGCACCUGCCGCCGGUGGUAAAAAAGAUCGGAAGAGCACACGUCU [U7G U10A] | 1.18
24 | GGGUCGGGUAUUCAUAAUCGCGUGGAUAUGGCACGCAAGUUUCUACCGGGCACCGUAAAUGUCCGACUGGAGCCGUUCGGGCGGCUAUAAACAGACCUCAGGCCCGAAGCGUGGCGGCACCUGCCGCCGGUGGUAAAAAAGAUCGGAAGAGCACACGUCU [U7G U8G G9U U10A C12U] | 1.29
25 | GGGUCGCAGGAUAAUAAUCGCGUGGAUAUGGCACGCAAGUUUCUACCGGGCACCGUAAAUGUCCGACUGGAGCCGUUCGGGCGGCUAUAAACAGACCUCAGGCCCGAAGCGUGGCGGCACCUGCCGCCGGUGGUAAAAAAGAUCGGAAGAGCACACGUCU [U7C U8A U10G U11A C12U C13A] | 1.3
26 | GGGUCGGACUGCCAUAAUCGCGUGGAUAUGGCACGCAAGUUUCUACCGGGCACCGUAAAUGUCCGACUGGAGCCGUUCGGGCGGCUAUAAACAGACCUCAGGCCCGAAGCGUGGCGGCACCUGCCGCCGGUGGUAAAAAAGAUCGGAAGAGCACACGUCU [U7G U8A G9C U11G] | 1.04
27 | GGGUCGACUGCGGAUAAUCGCGUGGAUAUGGCACGCAAGUUUCUACCGGGCACCGUAAAUGUCCGACUGGAGCCGUUCGGGCGGCUAUAAACAGACCUCAGGCCCGAAGCGUGGCGGCACCUGCCGCCGGUGGUAAAAAAGAUCGGAAGAGCACACGUCU [U7A U8C G9U U10G U11C C12G C13G] | 1.17
28 | GGGUCGGGACUUCAUAAUCGCGUGGAUAUGGCACGCAAGUUUCUACCGGGCACCGUAAAUGUCCGACUGGAGCCGUUCGGGCGGCUAUAAACAGACCUCAGGCCCGAAGCGUGGCGGCACCUGCCGCCGGUGGUAAAAAAGAUCGGAAGAGCACACGUCU [U7G U8G G9A U10C C12U] | 1.59
29 | GGGUCGUGCGUUAAUAAUCGCGUGGAUAUGGCACGCAAGUUUCUACCGGGCACCGUAAAUGUCCGACUGGAGCCGUUCGGGCGGCUAUAAACAGACCUCAGGCCCGAAGCGUGGCGGCACCUGCCGCCGGUGGUAAAAAAGAUCGGAAGAGCACACGUCU [U8G G9C U10G C12U C13A] | 1.08
30 | GGGUCGACUAAAUAUAAUCGCGUGGAUAUGGCACGCAAGUUUCUACCGGGCACCGUAAAUGUCCGACUGGAGCCGUUCGGGCGGCUAUAAACAGACCUCAGGCCCGAAGCGUGGCGGCACCUGCCGCCGGUGGUAAAAAAGAUCGGAAGAGCACACGUCU [U7A U8C G9U U10A U11A C12A C13U] | 1.22
31 | GGGUCGGGUGACCAUAAUCGCGUGGAUAUGGCACGCAAGUUUCUACCGGGCACCGUAAAUGUCCGACUGGAGCCGUUCGGGCGGCUAUAAACAGACCUCAGGCCCGAAGCGUGGCGGCACCUGCCGCCGGUGGUAAAAAAGAUCGGAAGAGCACACGUCU [U7G U8G G9U U10G U11A] | 1.4
32 | GGGUCGUGAGCGAAUAAUCGCGUGGAUAUGGCACGCAAGUUUCUACCGGGCACCGUAAAUGUCCGACUGGAGCCGUUCGGGCGGCUAUAAACAGACCUCAGGCCCGAAGCGUGGCGGCACCUGCCGCCGGUGGUAAAAAAGAUCGGAAGAGCACACGUCU [U8G G9A U10G U11C C12G C13A] | 1.27
33 | GGGUCGAGAGCUUAUAAUCGCGUGGAUAUGGCACGCAAGUUUCUACCGGGCACCGUAAAUGUCCGACUGGAGCCGUUCGGGCGGCUAUAAACAGACCUCAGGCCCGAAGCGUGGCGGCACCUGCCGCCGGUGGUAAAAAAGAUCGGAAGAGCACACGUCU [U7A U8G G9A U10G U11C C12U C13U] | 1.14
34 | GGGUCGAAUAAACAUAAUCGCGUGGAUAUGGCACGCAAGUUUCUACCGGGCACCGUAAAUGUCCGACUGGAGCCGUUCGGGCGGCUAUAAACAGACCUCAGGCCCGAAGCGUGGCGGCACCUGCCGCCGGUGGUAAAAAAGAUCGGAAGAGCACACGUCU [U7A U8A G9U U10A U11A C12A] | 1.22
35 | GGGUCGAAAUCGCAUAAUCGCGUGGAUAUGGCACGCAAGUUUCUACCGGGCACCGUAAAUGUCCGACUGGAGCCGUUCGGGCGGCUAUAAACAGACCUCAGGCCCGAAGCGUGGCGGCACCUGCCGCCGGUGGUAAAAAAGAUCGGAAGAGCACACGUCU [U7A U8A G9A U11C C12G] | 1.1
36 | GGGUCGUCCCGGUAUAAUCGCGUGGAUAUGGCACGCAAGUUUCUACCGGGCACCGUAAAUGUCCGACUGGAGCCGUUCGGGCGGCUAUAAACAGACCUCAGGCCCGAAGCGUGGCGGCACCUGCCGCCGGUGGUAAAAAAGAUCGGAAGAGCACACGUCU [U8C G9C U10C U11G C12G C13U] | 1.08
